Laboratory results: doi:10.1101/2021.03.22.436508

How the values were obtained:
[1] = biological target: Vibrio cholerae ParE2 toxin with C-terminal histidine tag (Vibrio cholerae biovar El Tor strain N16961); assay: SEC-MALS
[2] = biological target: Vibrio cholerae ParE2 toxin with C-terminal histidine tag (Vibrio cholerae biovar El Tor strain N16961); assay: crystal structure
[3] = biological target: Vibrio cholerae ParD2 antitoxin (Vibrio cholerae biovar El Tor strain N16961); assay: crystal structure
[4] = biological target: Vibrio cholerae ParD2 antitoxin (Vibrio cholerae biovar El Tor strain N16961); assay: crystal structure; remark: listed apart in the source
[5] = biological target: Vibrio cholerae ParE2 toxin with C-terminal histidine tag (Vibrio cholerae biovar El Tor strain N16961); assay: native MS
[6] = biological target: Vibrio cholerae ParD2 antitoxin (Vibrio cholerae biovar El Tor strain N16961); assay: native MS
[7] = biological target: Vibrio cholerae ParE2 toxin with C-terminal histidine tag (Vibrio cholerae biovar El Tor strain N16961); assay: SAXS
[8] = biological target: Vibrio cholerae ParD2:ParE2 6:2 hetero-octameric complex (Vibrio cholerae biovar El Tor strain N16961); assay: native MS

Vibrio cholerae ParD2 antitoxin (natural protein)
stoichiometry N (ParD2 per ParE2 (printed as 6:2)) [1]: 3
stoichiometry N (ParD2 per ParE2 (printed as 6:2)) [2]: 3
stoichiometry N [3]: 2
stoichiometry N [4]: 6
stoichiometry N (ParD2 per ParE2 (printed as 6:2)) [5]: 3
stoichiometry N [6]: 2
stoichiometry N (ParD2 per ParE2 (printed as 6:2)) [7]: 3

Vibrio cholerae ParD2:ParE2 6:2 hetero-octameric complex
stoichiometry N [8]: 2
